The record followed here is paper PMC10703879, “Antigen-induced chimeric antigen receptor multimerization amplifies on-tumor cytotoxicity” (Signal Transduction and Targeted Therapy, 2023).

What all share (settings): both partners purified
The target in experiment [1] is T1, BCMAECD (synthesized extracellular domain of human B-cell maturation antigen, residues 1-54) (human, UniProt Q02223-1).
T1 construct: B-cell maturation antigen (BCMA), human, extracellular domain, residues 1-54 of UniProt Q02223-1; synthesized, without glycosylation; calculated Mw 5.9 kDa; also called BCMA extracellular domain; BCMA ectodomain; source: synthetic peptide (GL Biochem, Shanghai)
T1 sequence (Q02223 1-54): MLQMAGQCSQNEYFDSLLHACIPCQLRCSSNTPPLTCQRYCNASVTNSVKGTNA
Kind of experiment: SEC; nanobody-BCMAECD complexes (mixed 1:4, overnight at 4 °C, Superdex 75). (Size exclusion chromatography separates by hydrodynamic size, large species first.)

Experiment [2] has as its target T2, BCMAECD-His (monomeric, His-tagged human BCMA extracellular domain) (Homo sapiens, UniProt Q02223-1).
T2 construct: B-cell maturation antigen (BCMA), human, extracellular domain; also called His-tagged human BCMAECD
Kind of experiment: SPR; Biacore 8K, 25 °C, 10 mM HEPES pH 7.4, 150 mM NaCl, 0.05% Tween 20; BCMAECD-His immobilised by amine coupling on CM5; nanobodies as analytes (five two-fold dilutions); Langmuir model for Nb1 and Nb2, heterogeneous ligand model for NbT. On the technique in general: Surface plasmon resonance follows binding to a sensor surface in real time, without labels.

The target of experiment [3] is T3, BCMAECD-Fc (dimerized, Fc-tagged human BCMA extracellular domain) (human, UniProt Q02223-1).
T3 construct: B-cell maturation antigen (BCMA), human, extracellular domain; also called Fc-tagged human BCMAECD
T3 sequence (Q02223 1-54): as above
Kind of experiment: SPR; Biacore 8K, 25 °C, 10 mM HEPES pH 7.4, 150 mM NaCl, 0.05% Tween 20; BCMAECD-Fc immobilised by amine coupling on CM5; nanobodies as analytes (five two-fold dilutions); Langmuir model for Nb1 and Nb2, heterogeneous ligand model for NbT.

The target in experiment [4] is T1, BCMAECD (synthesized extracellular …). Kind of experiment: AUC; sedimentation velocity; complexes formed by mixing nanobody with excess BCMAECD (molar ratio 1:4, overnight at 4 °C); 1 mg/ml, 45,000 rpm, 20 mM Tris pH 8.0, 100 mM NaCl, 4 °C.

T2 sequence (Q02223 1-54): as above

B1: Nb1 (anti-BCMA nanobody 1 of the cilta-cel CAR) (VHH)
VHH: QVKLEESGGGLVQAGRSLRLSCAASEHTFSSHVMGWFRQAPGKERESVAVIGWRDISTSYADSVKGRFTISRDNAKKTLYLQMNSLKPEDTAVYYCAARRIDAADFDSWGQGTQVTVSS
notes: VHH from a phage display library of llamas immunized with BCMA; calculated Mw 13.9 kDa; source: provided by GenScript
Usually stoichiometry N stands for a count of units in the complex or per binding partner. The term Kd denotes the free concentration of one partner at which half of the binding sites on the other are occupied at equilibrium, for simple one-to-one binding. B1: the “stoichiometry N” value in experiment [1] is ~1 Nb1 per BCMAECD (printed 2:2); in experiment [4] it was 1 Nb1 per BCMAECD (printed 2:2). Besides, the Kd in experiment [2] is 3.9 nM; in experiment [3] it was 0.67 nM.

B2: Nb2 (anti-BCMA nanobody 2 of the cilta-cel CAR) (VHH)
VHH: EVQLVESGGGLVQAGGSLRLSCAASGRTFTMGWFRQAPGKEREFVAAISLSPTLAYYAESVKGRFTISRDNAKNTVVLQMNSLKPEDTALYYCAADRKSVMSIRPDYWGQGTQVTVSS
notes: VHH from a phage display library of llamas immunized with BCMA; calculated Mw 13.6 kDa; source: provided by GenScript
For B2, the “stoichiometry N” value in experiment [1] is ~1 Nb2 per BCMAECD (printed 1:1); in experiment [4], 1 Nb2 per BCMAECD (printed 1:1). Also, the figures for the Kd in experiment [2] and in experiment [3] were 4.2 nM and 3.7 nM, respectively.
